# In patent US20080003218A1 (Genentech, published 2008):
# Like-named read-outs stand apart in the source and are kept apart here.
# B1: murine anti-human IgE monoclonal antibody MaE11 (antibody, V domains shown)
# VH: DVQLQESGPGLVKPSQSLSLACSVTGYSITSGYSWNWIRQFPGNKLEWMGSITYDGSSNYNPSLKNRISVTRDTSQNQFFLKLNSATAEDTATYYCARGSHYFGHWHFAVWGAGTTVTVSS
# VL: DIQLTQSPASLAVSLGQRATISCKASQSVDYDGDSYMNWYQQKPGQPPILLIYAASYLGSEIPARFSGSGSGTDFTLNIHPVEEEDAATFYCQQSHEDPYTFGAGTKLEIK
# notes: Murine IgG1; immunogen U266 IgE; also called murine mAb MaE11
# Assays:
# [1] = target: IgE bound to FcεRI on human peripheral blood basophils (human, UniProt P01854 1-546; P12319 26-257); test: cell-based or functional assay
# Sequence of IgE bound to FcεRI on human peripheral blood basophils (P01854 whole entry, chain 1 of 2): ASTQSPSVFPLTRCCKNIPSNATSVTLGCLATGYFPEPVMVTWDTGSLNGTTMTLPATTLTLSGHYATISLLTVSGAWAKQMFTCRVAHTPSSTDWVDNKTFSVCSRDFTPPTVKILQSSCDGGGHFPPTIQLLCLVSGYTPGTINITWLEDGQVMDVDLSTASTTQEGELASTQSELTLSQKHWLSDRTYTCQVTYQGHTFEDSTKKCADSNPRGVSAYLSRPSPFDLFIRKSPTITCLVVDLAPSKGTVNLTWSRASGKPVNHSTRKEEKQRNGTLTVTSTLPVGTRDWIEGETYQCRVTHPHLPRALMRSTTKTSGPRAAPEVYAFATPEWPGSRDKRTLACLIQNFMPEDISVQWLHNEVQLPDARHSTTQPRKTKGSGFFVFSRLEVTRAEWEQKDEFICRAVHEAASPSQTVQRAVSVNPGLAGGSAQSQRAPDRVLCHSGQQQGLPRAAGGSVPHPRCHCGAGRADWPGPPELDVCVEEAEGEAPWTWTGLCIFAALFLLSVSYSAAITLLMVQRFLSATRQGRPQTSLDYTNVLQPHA
# Sequence of IgE bound to FcεRI on human peripheral blood basophils (P12319 26-257, chain 2 of 2): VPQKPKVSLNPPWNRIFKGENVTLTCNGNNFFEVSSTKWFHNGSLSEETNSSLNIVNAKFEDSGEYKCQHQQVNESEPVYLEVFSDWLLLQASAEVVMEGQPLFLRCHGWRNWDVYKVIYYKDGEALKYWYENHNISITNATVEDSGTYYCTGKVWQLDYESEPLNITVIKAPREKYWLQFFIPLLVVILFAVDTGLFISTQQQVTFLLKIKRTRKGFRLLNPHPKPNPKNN
# [2] = target: membrane IgE on U266B1 cells (human, UniProt P01854 1-546); test: FACS on membrane IgE+ U266B1 cells
# Sequence of membrane IgE on U266B1 cells (P01854 whole entry, one chain of several): as the sequence (P01854 whole entry, chain 1 of 2) above
# [3] = target: T1, human IgE (human, UniProt P01854 1-546); test: equilibrium binding (Scatchard), 125I-IgE
# T1 sequence (P01854 whole entry): as the sequence (P01854 whole entry, chain 1 of 2) above
# [4] = target: T1, human IgE; test: soluble receptor assay, biotin-IgE binding to coated FcεRI α-chain IgG chimera
# [5] = target: T1, human IgE; test: as above; remark: listed apart in the source
binder,measurement,setting,value
B1,PBL histamine release (EC50),[1],> 100 µg/mL
same,EC50,[2],0.15 µg/mL
same,Kd,[3],30 nM
same,IC50,[4],0.179 µg/mL
same,ratio F(ab)-X/F(ab)-2,[4],0.03 ratio
same,ratio F(ab)-X/MaE11,[4],1 ratio
same,IC50,[5],0.449 µg/mL
same,ratio Variant X/IgG1-2,[5],0.06 ratio
same,ratio Variant X/MaE11,[5],1 ratio
